Measurements published in the supplement of paper PMC9170038.

How the values were obtained:
MS2 coat protein [1] = assay: apparent KD of MS2 coat protein, switch ON state; designed switch direction (-1 OFF switch, 1 ON switch): 1; higher = weaker reporter binding; settings: FMN input: 0 or 200 uM; Eterna round: R93 (includes R88 designs)
Procedure, shortened: (§1)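 Values are apparent KD, taken as the median for each design of fits to normalised binding curves from individual clusters. The designed RNA switches were transcribed on-chip from Illumina sequencing clusters and exposed to SNAP-549-labelled MS2 coat protein at twofold increasing amounts from 0.7 or 1.5 nM to 3 µM. Titration used 100 mM Tris-HCl pH 7.5, 80 mM KCl and 4 mM MgCl2, without or with constant ligand.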

MS2 coat protein [2] = assay: apparent KD of MS2 coat protein, switch OFF state (with FMN for OFF switches, without FMN for ON switches); designed switch direction (-1 OFF switch, 1 ON switch): 1; higher = weaker reporter binding; settings: FMN input: 0 or 200 uM; Eterna round: R93 (includes R88 designs)
Procedure, shortened: as §1

Sequence	apparent KD of MS2 coat protein (MS2 coat protein [1])	apparent KD of MS2 coat protein (MS2 coat protein [2])
AACAAUCUAUCUGAGGAUAUAUGUCGAAAGACAUGAGGAUCACCCAUGUAAAAACAUGAAAAGACAUAGAAGGCAGAUAGAUUGA [SS2: 1132]	0.0186 µM	0.0361 µM
CAUCAUGCGCCUAAGGAUAUGUCUCACAAGACAUGAGGAUCACCCAUGUAGAAUAAAUAAAUGAUGCAGAAGGUGGAGCGCAUAC [Beusesce]	0.0619 µM	0.507 µM
AGGAAACAUGAGGAUCACCCAUGUAAAAAUAUAGGAGGAUAUGCGAAAAGAAACAAAGAAGCAGAAGGCUUAAAAA [75%, Ex sub1, 22]	0.0131 µM	0.0208 µM
GUGGCCUAGGCACAGGAUAUGUUGCUCGUAACAUGAGGAUCACCCAUGUGCCUAUGAGAUUUAAUGCAGAAGGGUGCACGCCACG [Edbeso]	0.0147 µM	0.233 µM
UACACGCUGGCGCAGGAUAUGUCGCUGGUGACAUGAGGAUCACCCAUGUAUACCAUUGCGGUUAAGCAGAAGGGUGAGAAGCGUG [Bidibeso]	0.0235 µM	0.0898 µM
AAAAGACAUGAGGAUCACCCAUGUAAAAACUUGGGAGGAUAUGCUUGGAAAACAUGCUAUGCAGAAGGCUCUAGUC [SS1 - 14]	0.0783 µM	0.123 µM
AAAAAACAUGAGGAUCACCCAUGUAGAAACAUGGGAGGAUAUACGAAGACGAAAGUCAAAGUAGAAGGCCUAAGAA [Garnet 88]	0.182 µM	0.224 µM
AAAAAACAUGAGGAUCACCCAUGUAAAAAAAUGGGAGGAUAUACAAAAAAAAAAAAAAAAGUAGAAGGCCUGAAAA [same state 10]	0.0623 µM	0.533 µM
AGGAAACAUGAGGAUCACCCAUGUAUAAAAAUGGAAGGAUAUACUAAGACGAAAGUCAUAGUAGAAGGUUCAAAAA [76%, Meechl, 9]	0.0131 µM	0.0211 µM
GGGAGACAUGAGGAUCACCCAUGUGAGAAGAGGCGAGGAUAUCGAAAGAAAGAAGAGAAACGAGAAGGCGCGAGUA [salish99-SS1-050]	0.0297 µM	0.0655 µM
UAGAGACAUGAGGAUCACCCAUGUAGGAUUAUGGGAGGAUAUACAAAGACGAGAGUCAGAGUAGAAGGCCUAGGAC [salish99-ss1-136(!)]	0.0214 µM	0.0601 µM
AAAAAACAUGAGGAUCACCCAUGUAAAAUUAUGGGAGGAUAUGGAAACACGAAAGUGAAACCAGAAGGCCUAAAAG [77%, Mat - Mod of Eli, 11]	0.0251 µM	0.0497 µM
GAAAAACAUGAGGAUCACCCAUGUGAGAAUAUGGGAGGAUAUACAAGGACGAAAGUCAAGGUAGAAGGCCUAAAAG [Mat - Same State 1 - Eli mod - 28]	0.0343 µM	0.155 µM
AUAUAUAAAAGAUAGGAUAUACUAAAAUAAACAUGAGGAUCACCCAUGUAAAAAAAGAAACUCAUGUAGAAGGAUCAUAUAUAUA [ss2 7th]	0.0465 µM	0.246 µM
AGGAGACAUGAGGAUCACCCAUGUGAGAAGAGGCGAGGAUAUCGAAAAAAAAAAAGAAAACGAGAAGGCGCGAGAA [salish99-SS1-014]	0.244 µM	0.0599 µM
AGGAGACAUGAGGAUCACCCAUGUGAGAAGAGGCGAGGAUAUCGAAAGAAAGAAGAGAAACGAGAAGGCGCGAGAC [salish99-SS1-029]	0.0154 µM	0.0336 µM
AAAAAAAAAUCUCAGGAUAUAGAUUAUAGAACAUGAGGAUCACCCAUGUAGUGAAAGAAGAAAAACUAGAAGGGAGGAAAAAAAAA [Same State 2 #2]	0.0482 µM	0.0708 µM

Sequence	apparent KD of MS2 coat protein (MS2 coat protein [1])	apparent KD of MS2 coat protein (MS2 coat protein [2])
UCAGUGCCGACGAAGGAUAUAGCGGGUGAGACAUGAGGAUCACCCAUGUAUGCAGAACUCAUCCUCUAGAAGGUUGAGACGGCAA [Onaaror]	0.101 µM	0.0843 µM
AAAGACAUGGUGCAGGAUAUAUUAAUAGUCACAUGAGGAUCACCCAUGUUCAGAUAUCUGAACGAGUAGAAGGGCGAUGAAAAAA [SameState2 Malc#5]	0.0889 µM	0.0619 µM
AGGAAACAUGAGGAUCACCCAUGUAAGAUAUAUACAGGAUAUGCGAAAAGAAACAAAGAAGCAGAAGGGUAAAAAA [75%, Ex sub1, 13]	0.018 µM	0.0255 µM
AAAUAACAUGAGGAUCACCCAUGUUACAACAAUACAGGAUAUGUGGGUGAAAAUAGCAUGACAGAAGGGUAAUGUA [SameState1 Malc#32]	0.239 µM	0.0798 µM
AAAAUACAUGAGGAUCACCCAUGUCCGACAAAUCAAGGAUAUGAUAGCCAAACCAAGCUGUUAGAAGGUGAAAGAA [Edengere]	0.499 µM	0.208 µM
GAGAAACAUGAGGAUCACCCAUGUAGAAAUAUGGGAGGAUAUACAAAGACGAAAGUCAAAGUAGAAGGCCUAGAAG [77%, Mat - Mod of Eli - With 2 more G's]	0.0219 µM	0.0516 µM
GAAAAACAUGAGGAUCACCCAUGUGAAAACUUGGGAGGAUAUACUAAGACGAAAGUCGAGGUAGAAGGCCUAAAAG [Same State 1.4i (Mat - Mod of Eli - )]	0.0224 µM	0.0741 µM
CGGAGACAUGAGGAUCACCCAUGUGAGAAGAGGCGAGGAUAUCGAAAGAAAGAAGAGAAACGAGAAGGCGCGAGAU [salish99-SS1-069]	0.0204 µM	0.0298 µM
ACAUGCUGCCGGCAGGAUAUCGCUUGGCGGACAUGAGGAUCACCCAUGUGAGAAAGUCGCGCGCGCGAGAAGGGCCAUGGUAUCAG [SameState2_Neo]	0.0893 µM	0.0611 µM
GAGAAACAUGAGGAUCACCCAUGUAGAGAUAUGGGAGGAUAUACAGAGACGAGAGUCAAAGUAGAAGGCCUAGAAG [77%, Mat - Mod of Eli - With 5 more G's]	0.0255 µM	0.0464 µM
GAGAAGAAGAGAGAGGAUAUCCAAAGGAAAACAUGAGGAUCACCCAUGUAAAAGGUAGGAAAUUGGGAGAAGGCUCAAAGGAGGG [salish99-ss2-031]	0.0232 µM	0.0295 µM
GGGAGACAUGAGGAUCACCCAUGUGAAAACGUGCGAGGAUAUGAAUGGAAACCAUACUGUUCAGAAGGCGUUUGUC [Titus Petronius Secundus]	0.0465 µM	0.0692 µM
GACAAACAUGAGGAUCACCCAUGUAGAAAUAUGGGAGGAUAUACAAAGACGAAAGUCAAAGUAGAAGGCCUAAAAG [77%, Mat - Mod of Eli - With 1 more C's]	0.0217 µM	0.079 µM
AGAAAACAUGAGGAUCACCCAUGUAGAAAUAUGGGAGGAUAUACAAAGACGAAAGUCAAGGUAGAAGGCCUAAAGA [Mat - Same State 1 - Meechl mod - D124]	0.02 µM	0.0999 µM
AAAAAUAAAACACAGGAUAUCCAAAAGAAAACAUGAGGAUCACCCAUGUAAAGAAAAUAAAAAUGGGAGAAGGGUGAAAAUAAGA [Mat - Same State 2 - JL mod - D21]	0.0299 µM	0.0526 µM
AAAGAAAAACUAGAGGAUAUCCGAGUGGUAACAUGAGGAUCACCCAUGUGAUGAAAGGAACAUGAGGAGAAGGCUAGAAGAAAAA [JL Nando mod 8]	0.0144 µM	0.257 µM
